Several values for one entry are separate records, joined by “and”; a condition that tells them apart may be missing. Equal entries are not always repeated.
B1: clone 6D9 (antibody, V domains shown)
VH: EVQLVESGGGLVQPGGSLRLSCAASGFTFTDYDMGWVRQAPGKGPEWVSLISGDSGNTWYDDSVKGRFTISRDNSKNTLYLQMNSLRAEDTAVYYCAKYRGTTKDYWGQGTLVTVSS
B2: clone 5E9 (antibody, V domains shown)
VH: EVQLVESGGGLVQPGGSLRLSCAASGFTFTTYDMGWVRQAPGKGPEWVSLISSGGSNTWYDDSVKGRFTISRDNSKNTLYLQMNSLRAEDTAVYYCAKEKYPYSDCDYWGQGTLVTVSS

Target: recombinant SARS (1-1190) (Beta Lifescience, BLIT-0210) (SARS-CoV), P59594
Settings: remark: other sources report otherwise

Row | Binder | O.D.
1 | B1 | 0.389 O.D. and 0.386 O.D.
2 | B2 | 0.294 O.D. and 0.278 O.D.
